B1: EDB-L19-diS-DM1 (antibody, human IgG1, kappa)
heavy: not shown
light: EIVLTQSPGTLSLSPGERATLSCRASQSVSSSFLAWYQQKPGQAPRLLIYYASSRATGIPDRFSGSGSGTDFTLTISRLEPEDFAVYYCQQTGRIPPTFGQGTKVEIKRTVAAPSVFIFPPSDEQLKSGTASVVCLLNNFYPREAKVQWKVDNALQSGNSQESVTEQDSKDSTYSLSSTLTLSKADYEKHKVYACEVTHQGLSSPVTKSFNRGEC
B2: EDB-L19-diS-4574 (antibody, human IgG1, kappa)
heavy: not shown
light: B1 light
B3: EDB-L19-diS-C2OCO-1569 (antibody, human IgG1, kappa)
heavy: not shown
light: B1 light

Target: EDB+ FN on WI38-VA13 cells (human, UniProt P02751 32-2477)
Assay: cell-based or functional assay

Sequence of EDB+ FN on WI38-VA13 cells (P02751 32-2477): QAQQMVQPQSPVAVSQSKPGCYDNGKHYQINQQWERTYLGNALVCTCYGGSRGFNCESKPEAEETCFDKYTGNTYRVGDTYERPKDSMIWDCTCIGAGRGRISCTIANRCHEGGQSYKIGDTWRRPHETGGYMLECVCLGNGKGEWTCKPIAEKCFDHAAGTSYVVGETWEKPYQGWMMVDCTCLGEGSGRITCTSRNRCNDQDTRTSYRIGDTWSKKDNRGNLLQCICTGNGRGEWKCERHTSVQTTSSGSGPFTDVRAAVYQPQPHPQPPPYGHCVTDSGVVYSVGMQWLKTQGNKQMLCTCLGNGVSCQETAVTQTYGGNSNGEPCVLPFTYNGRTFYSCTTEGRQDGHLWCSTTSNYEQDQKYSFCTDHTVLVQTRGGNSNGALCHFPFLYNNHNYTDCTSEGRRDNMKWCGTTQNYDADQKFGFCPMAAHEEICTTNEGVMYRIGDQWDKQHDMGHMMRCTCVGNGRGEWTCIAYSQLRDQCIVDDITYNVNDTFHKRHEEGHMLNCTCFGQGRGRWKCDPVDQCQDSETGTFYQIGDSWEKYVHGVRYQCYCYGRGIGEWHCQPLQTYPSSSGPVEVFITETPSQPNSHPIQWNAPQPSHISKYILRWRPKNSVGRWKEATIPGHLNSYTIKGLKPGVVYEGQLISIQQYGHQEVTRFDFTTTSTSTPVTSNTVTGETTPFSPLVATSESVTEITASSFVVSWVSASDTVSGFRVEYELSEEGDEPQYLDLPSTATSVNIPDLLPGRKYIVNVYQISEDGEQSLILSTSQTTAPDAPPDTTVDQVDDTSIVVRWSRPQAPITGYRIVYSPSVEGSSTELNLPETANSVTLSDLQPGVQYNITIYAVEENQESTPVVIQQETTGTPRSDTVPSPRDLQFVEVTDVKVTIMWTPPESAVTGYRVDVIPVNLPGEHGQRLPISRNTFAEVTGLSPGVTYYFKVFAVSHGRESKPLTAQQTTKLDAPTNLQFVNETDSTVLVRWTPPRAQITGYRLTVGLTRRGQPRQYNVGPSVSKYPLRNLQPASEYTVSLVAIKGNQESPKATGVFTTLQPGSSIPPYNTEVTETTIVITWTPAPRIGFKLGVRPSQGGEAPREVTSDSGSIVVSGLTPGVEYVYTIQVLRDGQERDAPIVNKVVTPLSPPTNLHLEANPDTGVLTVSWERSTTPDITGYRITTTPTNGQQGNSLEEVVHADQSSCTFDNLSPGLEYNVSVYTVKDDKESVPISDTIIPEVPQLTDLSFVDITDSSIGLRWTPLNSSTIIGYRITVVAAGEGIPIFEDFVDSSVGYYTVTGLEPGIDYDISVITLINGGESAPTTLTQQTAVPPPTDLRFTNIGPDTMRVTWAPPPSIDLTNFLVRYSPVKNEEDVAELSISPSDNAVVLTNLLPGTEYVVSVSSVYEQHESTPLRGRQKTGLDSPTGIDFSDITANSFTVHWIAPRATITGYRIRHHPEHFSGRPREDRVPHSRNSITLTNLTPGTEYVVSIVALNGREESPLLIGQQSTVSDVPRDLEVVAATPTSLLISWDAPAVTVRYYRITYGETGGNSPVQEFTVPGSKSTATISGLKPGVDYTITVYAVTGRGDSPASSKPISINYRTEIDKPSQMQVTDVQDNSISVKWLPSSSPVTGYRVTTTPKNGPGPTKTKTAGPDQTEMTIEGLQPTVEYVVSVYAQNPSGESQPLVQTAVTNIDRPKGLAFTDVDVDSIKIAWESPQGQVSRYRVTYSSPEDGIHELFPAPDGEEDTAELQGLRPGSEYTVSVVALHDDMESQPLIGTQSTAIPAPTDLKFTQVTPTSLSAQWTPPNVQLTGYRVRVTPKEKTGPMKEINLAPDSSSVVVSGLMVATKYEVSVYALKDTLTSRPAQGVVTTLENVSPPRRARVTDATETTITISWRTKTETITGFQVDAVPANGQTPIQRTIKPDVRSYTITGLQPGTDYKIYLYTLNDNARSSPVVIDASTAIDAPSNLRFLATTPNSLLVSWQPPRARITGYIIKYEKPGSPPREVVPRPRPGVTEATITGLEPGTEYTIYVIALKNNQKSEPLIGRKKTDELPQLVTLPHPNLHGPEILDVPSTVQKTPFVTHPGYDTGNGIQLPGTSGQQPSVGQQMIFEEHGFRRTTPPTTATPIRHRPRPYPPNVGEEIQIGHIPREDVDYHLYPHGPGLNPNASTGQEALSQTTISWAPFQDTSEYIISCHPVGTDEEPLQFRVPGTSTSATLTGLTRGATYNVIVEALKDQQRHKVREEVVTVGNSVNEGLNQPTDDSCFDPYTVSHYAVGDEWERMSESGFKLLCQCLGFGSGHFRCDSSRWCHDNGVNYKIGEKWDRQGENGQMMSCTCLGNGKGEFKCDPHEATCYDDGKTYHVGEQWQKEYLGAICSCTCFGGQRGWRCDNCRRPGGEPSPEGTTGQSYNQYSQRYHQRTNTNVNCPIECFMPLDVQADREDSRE

Row | Binder | Avg IC50 (ng/ml of antibody), in vitro cytotoxicity on WI38-VA13 cells [ng/mL]
1 | B1 | 268
2 | B2 | 487
3 | B3 | 21

From patent publication US20200069764A1 (Pfizer, published 2020)
